Reference: PMC5549943
Values joined by “and” are separate entries in the source; they are usually repeats but may differ in a detail not shown here. Equal values may be shown once.

Biological target: Hepatitis B Virus core protein Cp149 dimer (Hepatitis B Virus)
Assay: resistive-pulse sensing

## Hepatitis B Virus core protein Cp149 dimer (domain or fragment)
  stoichiometry N: 90 dimers and 120 dimers
